Source: US20130011378A1, “Stable formulations of a hyaluronan-degrading enzyme” (priority 2011, published 2013)

Key:
[1] = Appearance (visual analysis, illuminator method); format: physicochemical
Experimental: Appearance of the insulin/rHuPH20 formulations was determined by qualitative visual analysis of the insulin/rHuPH20 solution in a type I glass vial. The evaluation of the coloration and clarity of the solution was determined by comparison to that of USP (or equivalent) sterile water for irrigation (SWFI). The aqueous solution was determined to be clear if its clarity was the same as that of the SWFI. The aqueous solution was determined to be colorless if it had the appearance of the SWFI. Vials were tested at room temperature and care was taken not to cause unnecessary turbulence and/or air bubbles in the solutions while swirling and/or inverting. If necessary, vials were wiped with non-shedding or lint-free wipes and 70% ethanol prior to testing. The procedure was as follows: A directional light source with a 150 W or greater lamp was turned on. The samples were prepared in a hood. Samples to be tested were gently inverted to ensure homogeneity prior to transferring >0.5 mL using aseptic technique to a Type 1 glass vial for testing. A SWFI sample was prepared in the same way. […] Color, clarity and the presence and extent of any visible particles and/or foreign matter were recorded. […]
In this method, the degree of clarity and coloration of liquids were evaluated to ensure (visually) product quality against the applicable appearance specifications. […]

[2] = RP-HPLC: insulin percent purity; format: physicochemical; conditions: for Percent of insulin main peak: 2-8° C.
Experimental: For insulin, 20 μL was injected for each HPLC run.
The data were processed using Design-Expert® 7.0 (StatEase) and the “historical data” feature. Insulin percent purity was expressed as the percent of main insulin versus all insulin species.

[3] = cited from earlier work

regular insulin: mature human insulin, SEQ ID NOS: 103 and 104
time tested without precipitates ([1]; NaCl 80 mM or less, pH 7.6): greater than 15 months
time to form precipitates ([1]; NaCl greater than 80 mM, pH 7.0): ≤ 1 week
Percent of insulin main peak ([2]; 50 mM NaCl, pH 7.0, 0 months): 97.64%
Percent of insulin main peak ([2]; 50 mM NaCl, pH 7.0, 0.25 months): 97.59%
Percent of insulin main peak ([2]; 50 mM NaCl, pH 7.0, 0.5 months): 97.50%
Percent of insulin main peak ([2]; 50 mM NaCl, pH 7.0, 1 month): 97.44%
Percent of insulin main peak ([2]; 50 mM NaCl, pH 7.0, 3 months): 97.24%
Percent of insulin main peak ([2]; 50 mM NaCl, pH 7.0, 5 months): 97.73%
Percent of insulin main peak ([2]; 50 mM NaCl, pH 7.0, 9 months): 97.20%
Percent of insulin main peak ([2]; 50 mM NaCl, pH 7.2, 0 months): 97.64%
Percent of insulin main peak ([2]; 50 mM NaCl, pH 7.2, 0.25 months): 97.59%
Percent of insulin main peak ([2]; 50 mM NaCl, pH 7.2, 0.5 months): 97.56%
Percent of insulin main peak ([2]; 50 mM NaCl, pH 7.2, 1 month): 97.46%
Percent of insulin main peak ([2]; 50 mM NaCl, pH 7.2, 3 months): 97.47%
Percent of insulin main peak ([2]; 50 mM NaCl, pH 7.2, 5 months): 97.75%
Percent of insulin main peak ([2]; 50 mM NaCl, pH 7.2, 9 months): 97.27%
Percent of insulin main peak ([2]; 50 mM NaCl, pH 7.4, 0 months): 97.58%
Percent of insulin main peak ([2]; 50 mM NaCl, pH 7.4, 0.25 months): 97.54%
Percent of insulin main peak ([2]; 50 mM NaCl, pH 7.4, 0.5 months): 97.48%
Percent of insulin main peak ([2]; 50 mM NaCl, pH 7.4, 1 month): 97.47%
Percent of insulin main peak ([2]; 50 mM NaCl, pH 7.4, 3 months): 97.45%
Percent of insulin main peak ([2]; 50 mM NaCl, pH 7.4, 5 months): 97.74%
Percent of insulin main peak ([2]; 50 mM NaCl, pH 7.4, 9 months): 97.27%
Percent of insulin main peak ([2]; 50 mM NaCl, pH 7.6, 0 months): 97.65%
Percent of insulin main peak ([2]; 50 mM NaCl, pH 7.6, 0.25 months): 97.58%
Percent of insulin main peak ([2]; 50 mM NaCl, pH 7.6, 0.5 months): 97.33%
Percent of insulin main peak ([2]; 50 mM NaCl, pH 7.6, 1 month): 97.44%
Percent of insulin main peak ([2]; 50 mM NaCl, pH 7.6, 3 months): 97.35%
Percent of insulin main peak ([2]; 50 mM NaCl, pH 7.6, 5 months): 97.66%
Percent of insulin main peak ([2]; 50 mM NaCl, pH 7.6, 9 months): 97.34%
Percent of insulin main peak ([2]; 80 mM NaCl, pH 7.0, 0 months): 97.65%
Percent of insulin main peak ([2]; 80 mM NaCl, pH 7.0, 0.25 months): 97.50%
Percent of insulin main peak ([2]; 80 mM NaCl, pH 7.0, 0.5 months): 97.30%
Percent of insulin main peak ([2]; 80 mM NaCl, pH 7.0, 1 month): 97.20%
Percent of insulin main peak ([2]; 80 mM NaCl, pH 7.0, 5 months): 97.81%
Percent of insulin main peak ([2]; 80 mM NaCl, pH 7.0, 9 months): 96.18%
Percent of insulin main peak ([2]; 80 mM NaCl, pH 7.2, 0 months): 97.57%
Percent of insulin main peak ([2]; 80 mM NaCl, pH 7.2, 0.25 months): 97.59%
Percent of insulin main peak ([2]; 80 mM NaCl, pH 7.2, 0.5 months): 97.30%
Percent of insulin main peak ([2]; 80 mM NaCl, pH 7.2, 1 month): 97.45%
Percent of insulin main peak ([2]; 80 mM NaCl, pH 7.2, 3 months): 97.34%
Percent of insulin main peak ([2]; 80 mM NaCl, pH 7.2, 5 months): 97.64%
Percent of insulin main peak ([2]; 80 mM NaCl, pH 7.4, 0 months): 97.56%
Percent of insulin main peak ([2]; 80 mM NaCl, pH 7.4, 0.25 months): 97.61%
Percent of insulin main peak ([2]; 80 mM NaCl, pH 7.4, 0.5 months): 97.51%
Percent of insulin main peak ([2]; 80 mM NaCl, pH 7.4, 1 month): 97.43%
Percent of insulin main peak ([2]; 80 mM NaCl, pH 7.4, 3 months): 97.43%
Percent of insulin main peak ([2]; 80 mM NaCl, pH 7.4, 5 months): 97.75%
Percent of insulin main peak ([2]; 80 mM NaCl, pH 7.4, 9 months): 97.29%
Percent of insulin main peak ([2]; 80 mM NaCl, pH 7.6, 0 months): 97.63%
Percent of insulin main peak ([2]; 80 mM NaCl, pH 7.6, 0.25 months): 97.62%
Percent of insulin main peak ([2]; 80 mM NaCl, pH 7.6, 0.5 months): 97.52%
Percent of insulin main peak ([2]; 80 mM NaCl, pH 7.6, 1 month): 97.37%
Percent of insulin main peak ([2]; 80 mM NaCl, pH 7.6, 3 months): 97.64%
Percent of insulin main peak ([2]; 80 mM NaCl, pH 7.6, 5 months): 97.67%
Percent of insulin main peak ([2]; 80 mM NaCl, pH 7.6, 9 months): 97.31%
Percent of insulin main peak ([2]; 110 mM NaCl, pH 7.0, 0 months): 97.64%
Percent of insulin main peak ([2]; 110 mM NaCl, pH 7.0, 0.25 months): 97.31%
Percent of insulin main peak ([2]; 110 mM NaCl, pH 7.0, 0.5 months): 97.57%
Percent of insulin main peak ([2]; 110 mM NaCl, pH 7.0, 1 month): 96.64%
Percent of insulin main peak ([2]; 110 mM NaCl, pH 7.0, 3 months): 96.10%
Percent of insulin main peak ([2]; 110 mM NaCl, pH 7.0, 5 months): 97.79%
Percent of insulin main peak ([2]; 110 mM NaCl, pH 7.2, 0 months): 97.62%
Percent of insulin main peak ([2]; 110 mM NaCl, pH 7.2, 0.25 months): 97.46%
Percent of insulin main peak ([2]; 110 mM NaCl, pH 7.2, 0.5 months): 97.35%
Percent of insulin main peak ([2]; 110 mM NaCl, pH 7.2, 3 months): 97.49%
Percent of insulin main peak ([2]; 110 mM NaCl, pH 7.2, 5 months): 97.61%
Percent of insulin main peak ([2]; 110 mM NaCl, pH 7.2, 9 months): 95.91%
Percent of insulin main peak ([2]; 110 mM NaCl, pH 7.4, 0 months): 97.65%
Percent of insulin main peak ([2]; 110 mM NaCl, pH 7.4, 0.25 months): 97.58%
Percent of insulin main peak ([2]; 110 mM NaCl, pH 7.4, 0.5 months): 97.39%
Percent of insulin main peak ([2]; 110 mM NaCl, pH 7.4, 1 month): 97.36%
Percent of insulin main peak ([2]; 110 mM NaCl, pH 7.4, 3 months): 97.36%
Percent of insulin main peak ([2]; 110 mM NaCl, pH 7.4, 5 months): 97.79%
Percent of insulin main peak ([2]; 110 mM NaCl, pH 7.4, 9 months): 96.91%
Percent of insulin main peak ([2]; 110 mM NaCl, pH 7.6, 0 months): 97.58%
Percent of insulin main peak ([2]; 110 mM NaCl, pH 7.6, 0.25 months): 97.57%
Percent of insulin main peak ([2]; 110 mM NaCl, pH 7.6, 0.5 months): 97.60%
Percent of insulin main peak ([2]; 110 mM NaCl, pH 7.6, 1 month): 97.52%
Percent of insulin main peak ([2]; 110 mM NaCl, pH 7.6, 3 months): 97.42%
Percent of insulin main peak ([2]; 110 mM NaCl, pH 7.6, 5 months): 97.61%
Percent of insulin main peak ([2]; 110 mM NaCl, pH 7.6, 9 months): 97.31%
Percent of insulin main peak ([2]; 140 mM NaCl, pH 7.0, 0 months): 97.65%
Percent of insulin main peak ([2]; 140 mM NaCl, pH 7.0, 0.25 months): 97.15%
Percent of insulin main peak ([2]; 140 mM NaCl, pH 7.0, 1 month): 96.39%
Percent of insulin main peak ([2]; 140 mM NaCl, pH 7.0, 3 months): 96.16%
Percent of insulin main peak ([2]; 140 mM NaCl, pH 7.0, 9 months): 95.17%
Percent of insulin main peak ([2]; 140 mM NaCl, pH 7.2, 0 months): 97.56%
Percent of insulin main peak ([2]; 140 mM NaCl, pH 7.2, 0.25 months): 97.37%
Percent of insulin main peak ([2]; 140 mM NaCl, pH 7.2, 1 month): 96.62%
Percent of insulin main peak ([2]; 140 mM NaCl, pH 7.2, 3 months): 96.60%
Percent of insulin main peak ([2]; 140 mM NaCl, pH 7.2, 9 months): 95.49%
Percent of insulin main peak ([2]; 140 mM NaCl, pH 7.4, 0 months): 97.64%
Percent of insulin main peak ([2]; 140 mM NaCl, pH 7.4, 0.25 months): 97.57%
Percent of insulin main peak ([2]; 140 mM NaCl, pH 7.4, 0.5 months): 97.33%
Percent of insulin main peak ([2]; 140 mM NaCl, pH 7.4, 1 month): 97.23%
Percent of insulin main peak ([2]; 140 mM NaCl, pH 7.4, 3 months): 97.38%
Percent of insulin main peak ([2]; 140 mM NaCl, pH 7.4, 5 months): 97.73%
Percent of insulin main peak ([2]; 140 mM NaCl, pH 7.4, 9 months): 96.10%
Percent of insulin main peak ([2]; 140 mM NaCl, pH 7.6, 0 months): 97.64%
Percent of insulin main peak ([2]; 140 mM NaCl, pH 7.6, 0.25 months): 97.61%
Percent of insulin main peak ([2]; 140 mM NaCl, pH 7.6, 0.5 months): 97.41%
Percent of insulin main peak ([2]; 140 mM NaCl, pH 7.6, 1 month): 97.51%
Percent of insulin main peak ([2]; 140 mM NaCl, pH 7.6, 3 months): 97.35%
Percent of insulin main peak ([2]; 140 mM NaCl, pH 7.6, 5 months): 97.56%
Percent of insulin main peak ([2]; 140 mM NaCl, pH 7.6, 9 months): 97.07%
insulin main peak percentage ([2]; long term storage at 2-8° C., […] m-cresol, 0.2% phenol): about 97%
plasma half-life ([3]; following subcutaneous administration): about 1.5 hours
Onset ([3]; in vivo): 30 min
Peak ([3]; in vivo): 1 to 3 h
